Experimental data: patent US20260242735A1 (UNIVERSIT T BASEL, published 2026)

Tests used:
human CD33 N20W = human CD33 N20W (human, UniProt P20138 18-364); assay: flow cytometry, mutant on cells, IgG
Description: (§1) An alanine scan on human CD33 was performed to the determine the residues on CD33 that are involved in binding to the antibodies investigated. […] Briefly, a mutation library of CD33 was created by high-throughput, site-directed mutagenesis. Each residue was individually mutated to alanine, with alanine codons mutated to serine. The mutant library was arrayed in 384-well microplates and transiently transfected into HEK293-T. Following transfection, cells were incubated with the indicated antibodies (IgG or Fab) at concentrations pre-determined using an independent immunofluorescence titration curve on wild type CD33. […] Binding of each antibody to each mutant clone was determined in duplicates. For each point, background fluorescence was subtracted from the raw data, which were then normalized to antibody reactivity with wild type CD33.
(§2) Antibodies were screened for binding to the human CD33 variants in IgG format. […] For each mutation, background fluorescence was subtracted from the raw data, which were then normalized to antibody reactivity with wild-type CD33.

human CD33 variant Y49D = human CD33 variant Y49D (human, UniProt P20138 18-364); assay: flow cytometry, IgG on cells expressing the mutant
Description: as §1, §2

human CD33 variant I47Y = human CD33 variant I47Y (human, UniProt P20138 18-364); assay: flow cytometry, IgG on cells expressing the mutant
Description: as §1, §2

human CD33 variant P48L = human CD33 variant P48L (human, UniProt P20138 18-364); assay: flow cytometry, IgG on cells expressing the mutant
human CD33 variant P48L, sequence (P20138 18-364 P48L limits assumed): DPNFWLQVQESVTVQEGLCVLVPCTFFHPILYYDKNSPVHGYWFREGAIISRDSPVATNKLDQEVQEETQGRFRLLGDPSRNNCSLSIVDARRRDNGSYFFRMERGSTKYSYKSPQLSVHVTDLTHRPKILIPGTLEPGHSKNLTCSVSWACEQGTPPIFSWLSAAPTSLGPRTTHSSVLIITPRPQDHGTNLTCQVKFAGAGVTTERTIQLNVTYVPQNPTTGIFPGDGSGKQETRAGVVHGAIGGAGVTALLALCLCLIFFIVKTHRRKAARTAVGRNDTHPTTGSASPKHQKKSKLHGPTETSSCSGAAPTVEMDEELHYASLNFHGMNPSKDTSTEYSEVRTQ
Description: as §1, §2

human CD33 variant M120I = human CD33 variant M120I (human, UniProt P20138 18-364); assay: flow cytometry, IgG on cells expressing the mutant
human CD33 variant M120I, sequence (P20138 18-364 M120I limits assumed): as the sequence (P20138 18-364 P48L limits assumed) above, with L31P, M103I counted along it
Description: as §1, §2

human CD33 variant Y49Q = human CD33 variant Y49Q (human, UniProt P20138 18-364); assay: flow cytometry, IgG on cells expressing the mutant
human CD33 variant Y49Q, sequence (P20138 18-364 Y49Q limits assumed): as the sequence (P20138 18-364 P48L limits assumed) above, with L31P, Y32Q counted along it
Description: as §1, §2

human CD33 variant I47R = human CD33 variant I47R (human, UniProt P20138 18-364); assay: flow cytometry, IgG on cells expressing the mutant
human CD33 variant I47R, sequence (P20138 18-364 I47R limits assumed): as the sequence (P20138 18-364 P48L limits assumed) above, with I30R, L31P counted along it
Description: as §1, §2

human CD33 variant I47W = human CD33 variant I47W (human, UniProt P20138 18-364); assay: flow cytometry, IgG on cells expressing the mutant
human CD33 variant I47W, sequence (P20138 18-364 I47W limits assumed): as the sequence (P20138 18-364 P48L limits assumed) above, with I30W, L31P counted along it
Description: as §1, §2

human CD33 variant Y50L = human CD33 variant Y50L (human, UniProt P20138 18-364); assay: flow cytometry, IgG on cells expressing the mutant
human CD33 variant Y50L, sequence (P20138 18-364 Y50L limits assumed): as the sequence (P20138 18-364 P48L limits assumed) above, with L31P, Y33L counted along it
Description: as §1, §2

human CD33 variant Y50R = human CD33 variant Y50R (human, UniProt P20138 18-364); assay: flow cytometry, IgG on cells expressing the mutant
human CD33 variant Y50R, sequence (P20138 18-364 Y50R limits assumed): as the sequence (P20138 18-364 P48L limits assumed) above, with L31P, Y33R counted along it
Description: as §1, §2

human CD33 variant S131G = human CD33 variant S131G (human, UniProt P20138 18-364); assay: flow cytometry, IgG on cells expressing the mutant
human CD33 variant S131G, sequence (P20138 18-364 S131G limits assumed): as the sequence (P20138 18-364 P48L limits assumed) above, with L31P, S114G counted along it
Description: as §1, §2

human CD33 variant Y49C = human CD33 variant Y49C (human, UniProt P20138 18-364); assay: flow cytometry, IgG on cells expressing the mutant
human CD33 variant Y49C, sequence (P20138 18-364 Y49C limits assumed): as the sequence (P20138 18-364 P48L limits assumed) above, with L31P, Y32C counted along it
Description: as §1, §2

human CD33 variant P48V = human CD33 variant P48V (human, UniProt P20138 18-364); assay: flow cytometry, IgG on cells expressing the mutant
human CD33 variant P48V, sequence (P20138 18-364 P48V limits assumed): as the sequence (P20138 18-364 P48L limits assumed) above, with L31V counted along it
Description: as §1, §2

human CD33 variant R122E = human CD33 variant R122E (human, UniProt P20138 18-364); assay: flow cytometry, IgG on cells expressing the mutant
human CD33 variant R122E, sequence (P20138 18-364 R122E limits assumed): as the sequence (P20138 18-364 P48L limits assumed) above, with L31P, R105E counted along it
Description: as §1, §2

human CD33 variant Y50G = human CD33 variant Y50G (human, UniProt P20138 18-364); assay: flow cytometry, IgG on cells expressing the mutant
human CD33 variant Y50G, sequence (P20138 18-364 Y50G limits assumed): as the sequence (P20138 18-364 P48L limits assumed) above, with L31P, Y33G counted along it
Description: as §1, §2

human CD33 variant D51K = human CD33 variant D51K (human, UniProt P20138 18-364); assay: flow cytometry, IgG on cells expressing the mutant
human CD33 variant D51K, sequence (P20138 18-364 D51K limits assumed): as the sequence (P20138 18-364 P48L limits assumed) above, with L31P, D34K counted along it
Description: as §1, §2

human CD33 variant I47N = human CD33 variant I47N (human, UniProt P20138 18-364); assay: flow cytometry, IgG on cells expressing the mutant
human CD33 variant I47N, sequence (P20138 18-364 I47N limits assumed): as the sequence (P20138 18-364 P48L limits assumed) above, with I30N, L31P counted along it
Description: as §1, §2

human CD33 variant I47Q = human CD33 variant I47Q (human, UniProt P20138 18-364); assay: flow cytometry, IgG on cells expressing the mutant
human CD33 variant I47Q, sequence (P20138 18-364 I47Q limits assumed): as the sequence (P20138 18-364 P48L limits assumed) above, with I30Q, L31P counted along it
Description: as §1, §2

human CD33 variant Y127H = human CD33 variant Y127H (human, UniProt P20138 18-364); assay: flow cytometry, IgG on cells expressing the mutant
human CD33 variant Y127H, sequence (P20138 18-364 Y127H limits assumed): as the sequence (P20138 18-364 P48L limits assumed) above, with L31P, Y110H counted along it
Description: as §1, §2

human CD33 variant P48Y = human CD33 variant P48Y (human, UniProt P20138 18-364); assay: flow cytometry, IgG on cells expressing the mutant
human CD33 variant P48Y, sequence (P20138 18-364 P48Y limits assumed): as the sequence (P20138 18-364 P48L limits assumed) above, with L31Y counted along it
Description: as §1, §2

human CD33 variant I47L = human CD33 variant I47L (human, UniProt P20138 18-364); assay: flow cytometry, IgG on cells expressing the mutant
human CD33 variant I47L, sequence (P20138 18-364 I47L limits assumed): as the sequence (P20138 18-364 P48L limits assumed) above, with I30L, L31P counted along it
Description: as §1, §2

human CD33 variant K52G = human CD33 variant K52G (human, UniProt P20138 18-364); assay: flow cytometry, IgG on cells expressing the mutant
human CD33 variant K52G, sequence (P20138 18-364 K52G limits assumed): as the sequence (P20138 18-364 P48L limits assumed) above, with L31P, K35G counted along it
Description: as §1, §2

human CD33 variant M120L = human CD33 variant M120L (human, UniProt P20138 18-364); assay: flow cytometry, IgG on cells expressing the mutant
human CD33 variant M120L, sequence (P20138 18-364 M120L limits assumed): as the sequence (P20138 18-364 P48L limits assumed) above, with L31P, M103L counted along it
Description: as §1, §2

human CD33 variant P48D = human CD33 variant P48D (human, UniProt P20138 18-364); assay: flow cytometry, IgG on cells expressing the mutant
human CD33 variant P48D, sequence (P20138 18-364 P48D limits assumed): as the sequence (P20138 18-364 P48L limits assumed) above, with L31D counted along it
Description: as §1, §2

human CD33 variant K52Y = human CD33 variant K52Y (human, UniProt P20138 18-364); assay: flow cytometry, IgG on cells expressing the mutant
human CD33 variant K52Y, sequence (P20138 18-364 K52Y limits assumed): as the sequence (P20138 18-364 P48L limits assumed) above, with L31P, K35Y counted along it
Description: as §1, §2

human CD33 variant Y50V = human CD33 variant Y50V (human, UniProt P20138 18-364); assay: flow cytometry, IgG on cells expressing the mutant
human CD33 variant Y50V, sequence (P20138 18-364 Y50V limits assumed): as the sequence (P20138 18-364 P48L limits assumed) above, with L31P, Y33V counted along it
Description: as §1, §2

human CD33 variant P48F = human CD33 variant P48F (human, UniProt P20138 18-364); assay: flow cytometry, IgG on cells expressing the mutant
human CD33 variant P48F, sequence (P20138 18-364 P48F limits assumed): as the sequence (P20138 18-364 P48L limits assumed) above, with L31F counted along it
Description: as §1, §2

human CD33 variant P48G = human CD33 variant P48G (human, UniProt P20138 18-364); assay: flow cytometry, IgG on cells expressing the mutant
human CD33 variant P48G, sequence (P20138 18-364 P48G limits assumed): as the sequence (P20138 18-364 P48L limits assumed) above, with L31G counted along it
Description: as §1, §2

human CD33 variant Y49T = human CD33 variant Y49T (human, UniProt P20138 18-364); assay: flow cytometry, IgG on cells expressing the mutant
human CD33 variant Y49T, sequence (P20138 18-364 Y49T limits assumed): as the sequence (P20138 18-364 P48L limits assumed) above, with L31P, Y32T counted along it
Description: as §1, §2

human CD33 variant Y49G = human CD33 variant Y49G (human, UniProt P20138 18-364); assay: flow cytometry, IgG on cells expressing the mutant
human CD33 variant Y49G, sequence (P20138 18-364 Y49G limits assumed): as the sequence (P20138 18-364 P48L limits assumed) above, with L31P, Y32G counted along it
Description: as §1, §2

human CD33 variant Y49S = human CD33 variant Y49S (human, UniProt P20138 18-364); assay: flow cytometry, IgG on cells expressing the mutant
human CD33 variant Y49S, sequence (P20138 18-364 Y49S limits assumed): as the sequence (P20138 18-364 P48L limits assumed) above, with L31P, Y32S counted along it
Description: as §1, §2

human CD33 variant Y129S = human CD33 variant Y129S (human, UniProt P20138 18-364); assay: flow cytometry, IgG on cells expressing the mutant
human CD33 variant Y129S, sequence (P20138 18-364 Y129S limits assumed): as the sequence (P20138 18-364 P48L limits assumed) above, with L31P, Y112S counted along it
Description: as §1, §2

human CD33 variant Y49D, sequence (P20138 18-364 Y49D limits assumed): as the sequence (P20138 18-364 P48L limits assumed) above, with L31P, Y32D counted along it
human CD33 N20W, sequence (P20138 18-364 N20W limits assumed): as the sequence (P20138 18-364 P48L limits assumed) above, with N3W, L31P counted along it
human CD33 variant I47Y, sequence (P20138 18-364 I47Y limits assumed): as the sequence (P20138 18-364 P48L limits assumed) above, with I30Y, L31P counted along it

Mean % WT Binding (human CD33 N20W) [% WT binding]	Mean % WT Binding (human CD33 variant Y49D)	Mean % WT Binding (human CD33 variant I47Y)	Mean % WT Binding (human CD33 variant P48L)	Mean % WT Binding (human CD33 variant M120I)	Mean % WT Binding (human CD33 variant Y49Q)	Mean % WT Binding (human CD33 variant I47R)	Mean % WT Binding (human CD33 variant I47W)	Mean % WT Binding (human CD33 variant Y50L)	Mean % WT Binding (human CD33 variant Y50R)	Mean % WT Binding (human CD33 variant S131G)	Mean % WT Binding (human CD33 variant Y49C)	Mean % WT Binding (human CD33 variant P48V)	Mean % WT Binding (human CD33 variant R122E)	Mean % WT Binding (human CD33 variant Y50G)	Mean % WT Binding (human CD33 variant D51K)	Mean % WT Binding (human CD33 variant I47N)	Mean % WT Binding (human CD33 variant Y127H)	Mean % WT Binding (human CD33 variant P48Y)	Mean % WT Binding (human CD33 variant I47L)	Binder	other results
0.6																				Refmab #1 (antibody, human IgG1, V domains shown, Tested in IgG format; human IgG1 (Absolute Antibody hP67.6, Cat. No. Ab00283-10.0); also called hP67.6) VH: EVQLVQSGAEVKKPGSSVKVSCKASGYTITDSNIHWVRQAPGQSLEWIGYIYPYNGGTDYNQKFKNRATLTVDNPTNTAYMELSSLRSEDTAFYYCVNGNPWLAYWGQGTLVTVSS VL: DIQLTQSPSTLSASVGDRVTITCRASESLDNYGIRFLTWFQQKPGKAPKLLMYAASNQGSGVPSRFSGSGSGTEFTLTISSLQPDDFATYYCQQTKEVPWSFGQGTKVEVK	
0.7																				Refmab #3 (antibody, human IgG1, V domains shown, Tested in IgG format; human IgG1 Fc silent (PG-LALA)) VH: QVQLVQSGAEVKKPGSSVKVSCKASGYTFTDYNMHWVRQAPGQGLEWIGYIYPYNGGTGYNQKFKSKATITADESTNTAYMELSSLRSEDTAVYYCARGRPAMDYWGQGTLVTVSS VL: DIQMTQSPSSLSASVGDRVTITCRASESVDNYGISFMNWFQQKPGKAPKLLIYAASNQGSGVPSRFSGSGSGTDFTLTISSLQPDDFATYYCQQSKEVPWTFGQGTKVEIK [Refmab #3, listing 1 of 2 here]	
	94.4 % of WT	109 % of WT	111 % of WT	81.6 % of WT	102 % of WT	83.2 % of WT	112 % of WT	106 % of WT	83 % of WT	100 % of WT	59.2 % of WT	113 % of WT	101 % of WT	91.2 % of WT	88.9 % of WT	91.6 % of WT	75.4 % of WT	90.3 % of WT	102 % of WT	Refmab #3 (antibody, human IgG1, V domains shown, Tested in IgG format; human IgG1 Fc silent (PG-LALA)) VH: QVQLVQSGAEVKKPGSSVKVSCKASGYTFTDYNMHWVRQAPGQGLEWIGYIYPYNGGTGYNQKFKSKATITADESTNTAYMELSSLRSEDTAVYYCARGRPAMDYWGQGTLVTVSS VL: DIQMTQSPSSLSASVGDRVTITCRASESVDNYGISFMNWFQQKPGKAPKLLIYAASNQGSGVPSRFSGSGSGTDFTLTISSLQPDDFATYYCQQSKEVPWTFGQGTKVEIK [Refmab #3, listing 2 of 2 here]	Mean % WT Binding (human CD33 variant I47Q): 106 % of WT; Mean % WT Binding (human CD33 variant K52G): 106 % of WT; Mean % WT Binding (human CD33 variant M120L): 90.8 % of WT; Mean % WT Binding (human CD33 variant P48D): 100 % of WT; Mean % WT Binding (human CD33 variant K52Y): 41.7 % of WT; Mean % WT Binding (human CD33 variant Y50V): 108 % of WT; Mean % WT Binding (human CD33 variant P48F): 100 % of WT; Mean % WT Binding (human CD33 variant P48G): 108 % of WT; Mean % WT Binding (human CD33 variant Y49T): 96.5 % of WT; Mean % WT Binding (human CD33 variant Y49G): 108 % of WT; Mean % WT Binding (human CD33 variant Y49S): 107 % of WT
52.1																				Refmab #4 (antibody, human IgG1, V domains shown, Tested in IgG format; human IgG1 Fc silent (PG-LALA)) VH: QVQLVQSGAEVKKPGESVKVSCKASGYTFTNYGMNWVKQAPGQGLEWMGWINTYTGEPTYADKFQGRVTMTTDTSTSTAYMEIRNLGGDDTAVYYCARWSWSDGYYVYFDYWGQGTSVTVSS VL: DIVMTQSPDSLTVSLGERTTINCKSSQSVLDSSTNKNSLAWYQQKPGQPPKLLLSWASTRESGIPDRFSGSGSGTDFTLTIDSPQPEDSATYYCQQSAHFPITFGQGTRLEIK [Refmab #4, listing 1 of 2 here]	
	2.5 % of WT	96 % of WT	1 % of WT	101 % of WT	91.9 % of WT	66.2 % of WT	86.8 % of WT	1.9 % of WT	0.3 % of WT	96.9 % of WT	0.5 % of WT	88.5 % of WT	79.2 % of WT	4 % of WT	42 % of WT	74.8 % of WT	105 % of WT	0.6 % of WT	88.5 % of WT	Refmab #4 (antibody, human IgG1, V domains shown, Tested in IgG format; human IgG1 Fc silent (PG-LALA)) VH: QVQLVQSGAEVKKPGESVKVSCKASGYTFTNYGMNWVKQAPGQGLEWMGWINTYTGEPTYADKFQGRVTMTTDTSTSTAYMEIRNLGGDDTAVYYCARWSWSDGYYVYFDYWGQGTSVTVSS VL: DIVMTQSPDSLTVSLGERTTINCKSSQSVLDSSTNKNSLAWYQQKPGQPPKLLLSWASTRESGIPDRFSGSGSGTDFTLTIDSPQPEDSATYYCQQSAHFPITFGQGTRLEIK [Refmab #4, listing 2 of 2 here]	Mean % WT Binding (human CD33 variant Y129S): 107 % of WT; Mean % WT Binding (human CD33 variant I47Q): 80.1 % of WT; Mean % WT Binding (human CD33 variant K52G): 69.5 % of WT; Mean % WT Binding (human CD33 variant M120L): 110 % of WT; Mean % WT Binding (human CD33 variant P48D): 2 % of WT; Mean % WT Binding (human CD33 variant K52Y): 20.7 % of WT; Mean % WT Binding (human CD33 variant Y50V): 1.7 % of WT; Mean % WT Binding (human CD33 variant P48F): 0.3 % of WT; Mean % WT Binding (human CD33 variant P48G): 0.4 % of WT; Mean % WT Binding (human CD33 variant Y49T): 2.8 % of WT; Mean % WT Binding (human CD33 variant Y49G): 54.9 % of WT
61.2																				Refmab #2 (antibody, human IgG1, V domains shown, Tested in IgG format; human IgG1 Fc silent (PG-LALA)) VH: QVQLVQSGAEVKKPGSSVKVSCKASGGTFSDYAISWVRQAPGQGLEWMGRIIPILGVADYAQKFQGRVTITADKSTRTAYMELSSLRSEDTAVYYCARNWADAFDIWGQGTMVTVSS VL: DIQLTQSPSSLSASVGDRVTITCRASQGISSVLAWYQQKPGKAPKLLIYDASSLESGVPSRFSGSGSGTDFTLTISSLQPEDFATYYCQQFDSSITFGQGTKLEIK [Refmab #2, listing 1 of 2 here]	
	1.4 % of WT	1.4 % of WT	90.4 % of WT	95.7 % of WT	17.4 % of WT	1.6 % of WT	0.6 % of WT	119 % of WT	109 % of WT	112 % of WT	3.2 % of WT	79.5 % of WT	0.6 % of WT	104 % of WT	2.7 % of WT	0.4 % of WT	114 % of WT	21.6 % of WT	2.8 % of WT	Refmab #2 (antibody, human IgG1, V domains shown, Tested in IgG format; human IgG1 Fc silent (PG-LALA)) VH: QVQLVQSGAEVKKPGSSVKVSCKASGGTFSDYAISWVRQAPGQGLEWMGRIIPILGVADYAQKFQGRVTITADKSTRTAYMELSSLRSEDTAVYYCARNWADAFDIWGQGTMVTVSS VL: DIQLTQSPSSLSASVGDRVTITCRASQGISSVLAWYQQKPGKAPKLLIYDASSLESGVPSRFSGSGSGTDFTLTISSLQPEDFATYYCQQFDSSITFGQGTKLEIK [Refmab #2, listing 2 of 2 here]	Mean % WT Binding (human CD33 variant Y129S): 102 % of WT; Mean % WT Binding (human CD33 variant K52G): 25.4 % of WT; Mean % WT Binding (human CD33 variant M120L): 124 % of WT; Mean % WT Binding (human CD33 variant P48D): 10.4 % of WT; Mean % WT Binding (human CD33 variant K52Y): 21 % of WT; Mean % WT Binding (human CD33 variant Y50V): 126 % of WT; Mean % WT Binding (human CD33 variant P48F): 68.7 % of WT; Mean % WT Binding (human CD33 variant P48G): 80.8 % of WT; Mean % WT Binding (human CD33 variant Y49T): 76.3 % of WT; Mean % WT Binding (human CD33 variant Y49S): 87.2 % of WT
